From patent US20250262210A1 (TRUSTEES OF COLUMBIA UNIVERSITY IN THE CITY OF NEW YORK, published 2025)
Substitutions are numbered along the chain they refer to.

T1: LZTR1 R810W-FLAG (human, UniProt Q8N653 1-840)
T1 construct: Stably expressed in U87 cells by lentivirus; also called LZTR1-FLAG-R810W; LZTR1 RW; not shown: FLAG tag
T1 sequence (looked up): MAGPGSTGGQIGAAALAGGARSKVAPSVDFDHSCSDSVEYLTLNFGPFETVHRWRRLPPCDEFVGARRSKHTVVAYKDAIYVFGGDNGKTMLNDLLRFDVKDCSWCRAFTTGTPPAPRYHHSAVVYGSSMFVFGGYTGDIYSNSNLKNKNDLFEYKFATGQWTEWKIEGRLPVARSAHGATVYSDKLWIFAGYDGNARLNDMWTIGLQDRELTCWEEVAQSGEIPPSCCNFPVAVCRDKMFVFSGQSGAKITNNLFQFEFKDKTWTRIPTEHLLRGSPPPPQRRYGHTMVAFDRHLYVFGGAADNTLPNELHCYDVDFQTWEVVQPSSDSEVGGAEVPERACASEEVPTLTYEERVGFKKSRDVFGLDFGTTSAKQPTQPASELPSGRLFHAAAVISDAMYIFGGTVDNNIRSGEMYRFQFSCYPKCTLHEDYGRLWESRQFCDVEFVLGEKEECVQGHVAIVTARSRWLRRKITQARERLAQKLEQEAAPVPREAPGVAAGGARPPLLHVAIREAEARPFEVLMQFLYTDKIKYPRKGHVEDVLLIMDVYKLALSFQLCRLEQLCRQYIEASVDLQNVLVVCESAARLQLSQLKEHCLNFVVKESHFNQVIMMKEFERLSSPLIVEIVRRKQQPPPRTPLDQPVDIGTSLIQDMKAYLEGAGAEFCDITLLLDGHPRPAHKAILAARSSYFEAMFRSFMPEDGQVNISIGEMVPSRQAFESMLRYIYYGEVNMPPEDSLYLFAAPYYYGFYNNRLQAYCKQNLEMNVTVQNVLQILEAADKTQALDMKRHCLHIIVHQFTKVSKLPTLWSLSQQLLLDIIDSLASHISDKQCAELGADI

T2: LZTR1-FLAG (human, UniProt Q8N653 1-840)
T2 construct: Expressed in HEK 293T, HeLa or U87 cells; used as cell lysate; also called LZTR1 wild type-FLAG; LZTR1 WT; not shown: FLAG tag at the C-terminus
T2 sequence (looked up): T1 sequence (looked up) with W810R

B1: PNPLA2 (other, human, UniProt Q96AD5 1-504, looked up)
chain: MFPREKTWNISFAGCGFLGVYYVGVASCLREHAPFLVANATHIYGASAGALTATALVTGVCLGEAGAKFIEVSKEARKRFLGPLHPSFNLVKIIRSFLLKVLPADSHEHASGRLGISLTRVSDGENVIISHFNSKDELIQANVCSGFIPVYCGLIPPSLQGVRYVDGGISDNLPLYELKNTITVSPFSGESDICPQDSSTNIHELRVTNTSIQFNLRNLYRLSKALFPPEPLVLREMCKQGYRDGLRFLQRNGLLNRPNPLLALPPARPHGPEDKDQAVESAQAEDYSQLPGEDHILEHLPARLNEALLEACVEPTDLLTTLSNMLPVRLATAMMVPYTLPLESALSFTIRLLEWLPDVPEDIRWMKEQTGSICQYLVMRAKRKLGRHLPSRLPEQVELRRVQSLPSVPLSCAAYREALPGWMRNNLSLGDALAKWEECQRQLLLGLFCTNVAFPPEALRMRAPADPAPAPADPASPQHQLAGPAPLLSTPAPEARPVIGALGL
B2: POR (other, human, UniProt P16435 2-677, looked up)
chain: GDSHVDTSSTVSEAVAEEVSLFSMTDMILFSLIVGLLTYWFLFRKKKEEVPEFTKIQTLTSSVRESSFVEKMKKTGRNIIVFYGSQTGTAEEFANRLSKDAHRYGMRGMSADPEEYDLADLSSLPEIDNALVVFCMATYGEGDPTDNAQDFYDWLQETDVDLSGVKFAVFGLGNKTYEHFNAMGKYVDKRLEQLGAQRIFELGLGDDDGNLEEDFITWREQFWPAVCEHFGVEATGEESSIRQYELVVHTDIDAAKVYMGEMGRLKSYENQKPPFDAKNPFLAAVTTNRKLNQGTERHLMHLELDISDSKIRYESGDHVAVYPANDSALVNQLGKILGADLDVVMSLNNLDEESNKKHPFPCPTSYRTALTYYLDITNPPRTNVLYELAQYASEPSEQELLRKMASSSGEGKELYLSWVVEARRHILAILQDCPSLRPPIDHLCELLPRLQARYYSIASSSKVHPNSVHICAVVVEYETKAGRINKGVATNWLRAKEPAGENGGRALVPMFVRKSQFRLPFKATTPVIMVGPGTGVAPFIGFIQERAWLRQQGKEVGETLLYYGCRRSDEDYLYREELAQFHRDGALTQLNVAFSREQSHKVYVQHLLKQDREHLWKLIEGGAHIYVCGDARNMARDVQNTFYDIVAELGAMEHAQAVDYIKKLMTKGRYSLDVWS
B3: PPP6C (other, human, UniProt O00743 1-305, looked up)
chain: MAPLDLDKYVEIARLCKYLPENDLKRLCDYVCDLLLEESNVQPVSTPVTVCGDIHGQFYDLCELFRTGGQVPDTNYIFMGDFVDRGYYSLETFTYLLALKAKWPDRITLLRGNHESRQITQVYGFYDECQTKYGNANAWRYCTKVFDMLTVAALIDEQILCVHGGLSPDIKTLDQIRTIERNQEIPHKGAFCDLVWSDPEDVDTWAISPRGAGWLFGAKVTNEFVHINNLKLICRAHQLVHEGYKFMFDEKLVTVWSAPNYCYRCGNIASIMVFKDVNTREPKLFRAVPDSERVIPPRTTTPYFL
B4: PTOV1 (other, human, UniProt Q86YD1 1-416, looked up)
chain: MVRPRRAPYRSGAGGPLGGRGRPPRPLVVRAVRSRSWPASPRGPQPPRIRARSAPPMEGARVFGALGPIGPSSPGLTLGGLAVSEHRLSNKLLAWSGVLEWQEKRRPYSDSTAKLKRTLPCQAYVNQGENLETDQWPQKLIMQLIPQQLLTTLGPLFRNSQLAQFHFTNRDCDSLKGLCRIMGNGFAGCMLFPHISPCEVRVLMLLYSSKKKIFMGLIPYDQSGFVSAIRQVITTRKQAVGPGGVNSGPVQIVNNKFLAWSGVMEWQEPRPEPNSRSKRWLPSHVYVNQGEILRTEQWPRKLYMQLIPQQLLTTLVPLFRNSRLVQFHFTKDLETLKSLCRIMDNGFAGCVHFSYKASCEIRVLMLLYSSEKKIFIGLIPHDQGNFVNGIRRVIANQQQVLQRNLEQEQQQRGMGG

Biological target: T1, LZTR1 R810W-FLAG
Experiment: IP/MS, LZTR1 R810W-FLAG, U87
In short: (§1)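 Gel slices were reduced with 5 mM DTT, alkylated with 11 mM IAA and digested overnight at 37° C. with trypsin. Peptides were analysed on an Orbitrap Fusion Tribrid by LC-MS/MS.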

Binding result, binds:
B1, B2, B3, B4

Biological target: T2, LZTR1-FLAG
Experiment: IP/MS, LZTR1 wild type-FLAG, U87
In short: as §1

Binding result, binds:
B1, B2, B3, B4
